Laboratory results: patent US6514936 (Bayer, dated 2003)

How the values were obtained:
[1] = target: T1, Human rhinovirus serotype 3 (HRV3), purified virion (human rhinovirus serotype 3, UniProt Q82081 562-855; Q82081 70-331; Q82081 332-561; Q82081 2-69); assay: cell-based or functional assay
T1 sequence 1: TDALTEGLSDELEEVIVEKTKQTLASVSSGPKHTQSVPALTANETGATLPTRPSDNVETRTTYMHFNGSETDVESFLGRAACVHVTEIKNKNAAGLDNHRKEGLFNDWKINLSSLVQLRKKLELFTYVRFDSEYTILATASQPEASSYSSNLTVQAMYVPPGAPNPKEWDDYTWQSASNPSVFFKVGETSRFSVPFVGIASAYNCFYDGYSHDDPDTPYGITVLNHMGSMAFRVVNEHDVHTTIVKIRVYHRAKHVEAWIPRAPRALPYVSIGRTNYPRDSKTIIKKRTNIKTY
T1 sequence 2: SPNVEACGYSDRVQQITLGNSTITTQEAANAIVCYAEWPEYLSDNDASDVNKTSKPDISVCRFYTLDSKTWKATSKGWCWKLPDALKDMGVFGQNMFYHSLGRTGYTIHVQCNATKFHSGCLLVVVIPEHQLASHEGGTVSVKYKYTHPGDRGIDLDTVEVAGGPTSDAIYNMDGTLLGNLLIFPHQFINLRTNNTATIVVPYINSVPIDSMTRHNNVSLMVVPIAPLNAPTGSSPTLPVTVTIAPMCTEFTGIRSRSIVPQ
T1 sequence 3: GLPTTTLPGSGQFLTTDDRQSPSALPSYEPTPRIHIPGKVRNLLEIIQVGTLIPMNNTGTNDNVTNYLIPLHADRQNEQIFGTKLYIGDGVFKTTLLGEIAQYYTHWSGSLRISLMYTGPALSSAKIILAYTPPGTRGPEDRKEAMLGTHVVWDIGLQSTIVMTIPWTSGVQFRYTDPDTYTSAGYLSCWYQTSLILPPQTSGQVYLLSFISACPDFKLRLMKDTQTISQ
T1 sequence 4: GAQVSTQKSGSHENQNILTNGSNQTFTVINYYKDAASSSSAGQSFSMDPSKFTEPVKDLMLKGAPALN

[2] = target: T1, Human rhinovirus serotype 3 (HRV3), …; assay: solid-phase competition against [35S]-HRV3 binding to ICAM-1-coated plates
[3] = target: T1, Human rhinovirus serotype 3 (HRV3), …; assay: pelleting assay, [35S]-cysteine-labelled ICAM mixed with HRV3 and centrifuged; average of 4 experiments
[4] = target: T1, Human rhinovirus serotype 3 (HRV3), …; assay: solid-phase competition, soluble ICAM against [35S]-HRV3 binding to ICAM-1-coated plates, 0.1% Triton X-100; average of three experiments ± S.D.
[5] = target: T1, Human rhinovirus serotype 3 (HRV3), …; assay: dot-blot, normalised [35S]-HRV3 binding of immobilised ICAM against that of immobilised tICAM(453)
[6] = target: T1, Human rhinovirus serotype 3 (HRV3), …; assay: cell-based or functional assay; remark: listed apart in the source

B1: tICAM(185) (receptor)
chain: QTSVSPSKVILPRGGSVLVTCSTSCDQPKLLGIETPLPKKELLLPGNNRKVYELSNVQEDSQPMCYSNCPDGQSTAKTFLTVYWTPERVELAPLPSWQPVGKNLTLRCQVEGGAPRANLTVVLLRGEKELKREPAVGEPAEVTTTVLVRRDHHGANFSCRTELDLRPQGLELFENTSAPYQLQTF
notes: range 1-185; On the UniProt precursor it is shifted by the length of the signal peptide; also called truncated ICAM, domains I and II; two N-terminal domains of ICAM-1
[1]
  IC50, neutralization of HRV3 infectivity, Assay I (continuous): 8.2 µM
  IC50, neutralization of HRV3 infectivity, Assay II (Pretreatment): < 20 µM
  IC50, neutralization of HRV3 infectivity, Assay III (high MOI): 13.2 µM
[2]
  fold difference of IC50 against tICAM(453): 3 fold
  fold higher IC50 than tmICAM: 1000 fold
[3]
  % ICAM Pelleted: 4.3%
[4]
  IC50: 9.7 µM

B2: Transmembrane intercellular adhesion molecule-1 (tmICAM-1) (receptor, human, UniProt P05362 28-532, looked up)
chain: QTSVSPSKVILPRGGSVLVTCSTSCDQPKLLGIETPLPKKELLLPGNNRKVYELSNVQEDSQPMCYSNCPDGQSTAKTFLTVYWTPERVELAPLPSWQPVGKNLTLRCQVEGGAPRANLTVVLLRGEKELKREPAVGEPAEVTTTVLVRRDHHGANFSCRTELDLRPQGLELFENTSAPYQLQTFVLPATPPQLVSPRVLEVDTQGTVVCSLDGLFPVSEAQVHLALGDQRLNPTVTYGNDSFSAKASVSVTAEDEGTQRLTCAVILGNQSQETLQTVTIYSFPAPNVILTKPEVSEGTEVTVKCEAHPRAKVTLNGVPAQPLGPRAQLLLKATPEDNGRSFSCSATLEVAGQLIHKNQTRELRVLYGPRLDERDCPGNWTWPENSQQTPMCQAWGNPLPELKCLKDGTFPLPIGESVTVTRDLEGTYLCRARSTQGEVTRKVTVNVLSPRYEIVIITVVAAAVIMGTAGLSTYLYNRQRKIKKYRLQQAQKGTPMKPNTQATPP
notes: mature; also called HRR; human rhinovirus receptor
[5]
  ratio ICAM/tICAM (453): 2.3
[3]
  % ICAM Pelleted: 11.6%
[4]
  IC50: 0.008 µM

B3: tICAM(453) (receptor)
chain: QTSVSPSKVILPRGGSVLVTCSTSCDQPKLLGIETPLPKKELLLPGNNRKVYELSNVQEDSQPMCYSNCPDGQSTAKTFLTVYWTPERVELAPLPSWQPVGKNLTLRCQVEGGAPRANLTVVLLRGEKELKREPAVGEPAEVTTTVLVRRDHHGANFSCRTELDLRPQGLELFENTSAPYQLQTFVLPATPPQLVSPRVLEVDTQGTVVCSLDGLFPVSEAQVHLALGDQRLNPTVTYGNDSFSAKASVSVTAEDEGTQRLTCAVILGNQSQETLQTVTIYSFPAPNVILTKPEVSEGTEVTVKCEAHPRAKVTLNGVPAQPLGPRAQLLLKATPEDNGRSFSCSATLEVAGQLIHKNQTRELRVLYGPRLDERDCPGNWTWPENSQQTPMCQAWGNPLPELKCLKDGTFPLPIGESVTVTRDLEGTYLCRARSTQGEVTRKVTVNVLSPRYE
notes: range 1-453; On the UniProt precursor it is shifted by the length of the signal peptide; also called truncated ICAM, domains I-V; entire extracellular domain of ICAM-1
[6]
  neutralization IC50 in Assay III relative to tICAM(185): 11 fold
[1]
  IC50, neutralization of HRV3 infectivity, Assay I (continuous): 0.38 µM
  IC50, neutralization of HRV3 infectivity, Assay II (Pretreatment): < 20 µM
  IC50, neutralization of HRV3 infectivity, Assay III (high MOI): 1.2 µM
[2]
  fold higher IC50 than tmICAM: 350 fold
[3]
  % ICAM Pelleted: 1%
[4]
  IC50: 3.1 µM
